CN116203146A (BEIJING DONGFANG BIOTECH CO LTD, dated 2023)
Residue numbers refer to the chain shown, from its start. Where two headings read alike, the source gives them in different places.

B1: 人源化抗LILRB4单克隆抗体HA-Ⅱ (human IgG1/Cκ) (antibody, V domains shown)
VH: EVQLVESGGGLVKPGGSLRLSCAASGFTFSSYTMSWVRQAPGKGLEWVATISSGGTYTYYPDSVKGRFTISRDNAKNSLYLQMNSLRAEDTAVYYCARDGYDGFDYWGQGTTVTVSS
VL: DIVMTQTPLSLSVTPGQPASISCRSSQSLAHSNGNTYLHWYLQKPGQSPQLLIYKVSNRFSGVPDRFSGSGSGTDFTLKISRVEAEDVGVYFCSQSTHVPTFGGGTKVEIKR
B2: 人源化抗LILRB4单克隆抗体HA-Ⅰ (human IgG1/Cκ) (antibody, V domains shown)
VH: B1 VH with A49S
VL: B1 VL with F92Y
B3: 人源化抗LILRB4单克隆抗体HA-Ⅲ (human IgG1/Cκ) (antibody, V domains shown)
VH: B1 VH with A97T
VL: B1 VL with Q50K
B4: MA-Ⅰ 鼠源抗LILRB4单克隆抗体 (mouse IgG1/Cκ) (antibody)
heavy: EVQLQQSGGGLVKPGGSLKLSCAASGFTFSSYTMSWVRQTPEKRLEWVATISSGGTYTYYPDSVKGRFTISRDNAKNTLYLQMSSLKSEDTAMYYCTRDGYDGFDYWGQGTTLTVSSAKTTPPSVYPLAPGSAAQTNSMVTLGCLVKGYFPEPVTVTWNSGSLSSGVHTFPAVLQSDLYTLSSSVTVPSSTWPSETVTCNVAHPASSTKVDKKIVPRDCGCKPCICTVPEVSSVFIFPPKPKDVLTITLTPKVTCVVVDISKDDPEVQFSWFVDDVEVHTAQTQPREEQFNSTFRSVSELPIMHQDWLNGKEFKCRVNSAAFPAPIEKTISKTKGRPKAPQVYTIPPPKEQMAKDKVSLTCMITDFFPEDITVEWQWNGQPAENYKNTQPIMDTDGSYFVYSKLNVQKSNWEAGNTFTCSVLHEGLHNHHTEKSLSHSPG
light: DIVMTQTTLSLPVSPGDQASISCRSSQSLAHSNGNTYLHWYLQKPGQSPKLLIYKVSNRFSGVPDRFSGSGSGTDFTLKISRVEAEDLGVYFCSQSTLVPTFGGGTKLEIKADAAPTVSIFPPSSEQLTSGGASVVCFLNNFYPKDINVKWKIDGSERQNGVLNSWTDQDSKDSTYSMSSTLTLTKDEYERHNSYTCEATHKTSTSPIVKSFNRNEC
B5: MB-Ⅰ 鼠源抗LILRB4单克隆抗体 (mouse IgG1/Cκ) (antibody)
heavy: QVQLQESGAELVKPGASVKLSCKASGYTFTNYWMHWVKQRPGQGLEWIGEINPSNGRTNYNEKFKTKATLTVDKSSSTAYMQLSSLTSEDSAVYYCARWGQLGLREGYYAVDYWGQGTSVTVSSAKTTPPSVYPLAPGSAAQTNSMVTLGCLVKGYFPEPVTVTWNSGSLSSGVHTFPAVLQSDLYTLSSSVTVPSSTWPSETVTCNVAHPASSTKVDKKIVPRDCGCKPCICTVPEVSSVFIFPPKPKDVLTITLTPKVTCVVVDISKDDPEVQFSWFVDDVEVHTAQTQPREEQFNSTFRSVSELPIMHQDWLNGKEFKCRVNSAAFPAPIEKTISKTKGRPKAPQVYTIPPPKEQMAKDKVSLTCMITDFFPEDITVEWQWNGQPAENYKNTQPIMDTDGSYFVYSKLNVQKSNWEAGNTFTCSVLHEGLHNHHTEKSLSHSPG
light: DIVMTQSPSSLSASLGDRVTISCRASQDISNYLNWYQQKPDGTVKLLIYYTSRLHSGVPSRFSGSGSGTDYSLTISNLEQEDIATYFCQQGNTLPPTFGGGTKLEIKADAAPTVSIFPPSSEQLTSGGASVVCFLNNFYPKDINVKWKIDGSERQNGVLNSWTDQDSKDSTYSMSSTLTLTKDEYERHNSYTCEATHKTSTSPIVKSFNRNEC

Assays:
[1] = biological target: T1, 人单核细胞白血病细胞(THP-1)表面LILRB4 (human, UniProt Q8NHJ6 22-448); assay: cell-based or functional assay
[2] = biological target: T1, 人单核细胞白血病细胞(THP-1)表面LILRB4; assay: cell-based or functional assay; remark: listed apart in the source

Row | Binder | IC50, inhibition of ARG1 secretion by THP-1 cells in the presence of ApoE (arginase activity kit) [1] [µg/mL] | IC50, inhibition of ARG1 secretion by THP-1 cells in the presence of ApoE (arginase activity kit) [2] [µg/mL]
1 | B1 | 250 | –
2 | B2 | 31.2 | –
3 | B3 | 98.5 | –
4 | B4 | – | 23.9
5 | B5 | – | 46
